In the supplement of paper PMC10567573:

B1: HSP90AB1 (parent)
chain: TLRQKAEADKNDKAVKDLVVLLFE
B2: CIB1 (parent)
chain: DLSRLVNCLTGEGEDTRLSASEMK

Variants of: B1
Assay: protein stability index of a GFP-peptide fusion (GPS, HEK-293T) (PSI 1-6); higher = more stable
Settings: c terminus: a fixed tail appended
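Note: lentivirally expressed fusions sorted by FACS into six bins by GFP to DsRed ratio, PSI derived from sequencing read proportions per bin multiplied by bin number.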

Point of comparison: T1Q, protein stability index 3.54. Against it:
- T1S — higher, 4.38
- T1L — lower, 2.3
- T1E — higher, 3.92
- T1F — lower, 2.42
- T1A — lower, 3.35
- T1M — lower, 3.02
- T1N — lower, 2.57
- T1G — lower, 3.53
- T1H — lower, 3.09
- T1V — lower, 2.52
- T1P — higher, 3.57
- T1D — higher, 3.58
- T1K — lower, 2.49
- T1C — lower, 2.26
- T1R — lower, 2.47

Variants of: B2
Assay: as above
Settings: c terminus: a fixed tail appended

Point of comparison: L2G, protein stability index 5.22. Against it:
- L2Q — lower, 4.6
- L2K — lower, 4.56
- L2F — lower, 3.85
- L2A — lower, 4.39
- L2M — lower, 5.13
- L2N — lower, 4.22
- E14K — lower, 2.94
- E14H — lower, 3.05
- E14N — lower, 3.06
- E14P — lower, 2.17
- E14R — lower, 2.34
- D1T — lower, 2.06
- D1C — lower, 2.65
- D1N — lower, 2.89
- D1P — lower, 4.33
- D1Y — lower, 2.43
- D1H — lower, 3.25
- D1Q — lower, 3.56
- D1M — lower, 2.49
- D1L — lower, 2.04
- L5C — lower, 3.35
- L5R — lower, 2.87
- L5A — lower, 3.99
- L5Y — lower, 2.27
- L5F — lower, 2.49
- L5K — lower, 4.53
- L5D — lower, 4.39
- L5H — lower, 3.23
- L5Q — lower, 4.54
- G13A — lower, 3.62
- G13P — lower, 3.03
- G13V — lower, 2.65
- G13S — lower, 3.97
- G13R — lower, 2.89
- G13I — lower, 3.55
- G13K — lower, 3.45
- G13Y — lower, 3.02
- G13W — lower, 2.4
- D15R — lower, 2.67
- D15F — lower, 2.32
- D15K — lower, 3.1
- D15C — lower, 2.19
- N7M — lower, 2.09
- T10D — lower, 3.27
- T10L — lower, 2.44
- T10A — lower, 3.49
- T10K — lower, 2.9
- T10F — lower, 2.77
- T10Y — lower, 1.99
- T10Q — lower, 3.61
- E12L — lower, 1.88
- E12C — lower, 3.46
- E12W — lower, 2.05
- E12M — lower, 3.22
- E12Q — lower, 2.43
- E12Y — lower, 2.17
- E12I — lower, 2.38
- E12T — lower, 1.85
- E12V — lower, 3.34
- E12K — lower, 3.29
- E12P — lower, 3.04
- L18D — lower, 4.07
- L18E — lower, 2.48
- L18G — lower, 1.4
- L18S — lower, 3.06
- L18V — lower, 3.63
- L18R — lower, 4.11
- L18N — lower, 3.75
- L18Y — lower, 3.12
- R17M — lower, 3.08
- R17S — lower, 2.84
- R17E — lower, 4.53
- S3Q — lower, 2.84
- S3F — lower, 2.9
- S3R — lower, 2.43
- S3T — lower, 2.32
- S3E — lower, 2.78
- R4L — lower, 3.47
- R4T — lower, 4.46
- R4P — lower, 3.66
- R4I — lower, 2.48
- R4Q — lower, 2.27
- R4A — lower, 3.8
- R4N — lower, 2.39
- C8H — lower, 2.81
- C8N — lower, 3.02
- C8I — lower, 2.4
- C8A — lower, 3.09
- C8F — lower, 2.46
- T16E — lower, 3.18
- T16M — lower, 2.62
- T16G — lower, 3.35
- T16Y — lower, 2.49
- T16S — lower, 2.48
- T16V — lower, 2.8
- T16Q — lower, 2.9
- T16N — lower, 3.22
- K24Y — lower, 2.23
- K24E — lower, 3.9
- K24I — lower, 1.81
- K24M — lower, 2.45
- E22Y — lower, 3.08
- E22H — lower, 2.49
- E22S — lower, 3.35
- E22P — lower, 4.12
- E22N — lower, 3.54
- E22C — lower, 2.76
- E22F — lower, 2.21
- L9V — lower, 4.17
- L9P — lower, 2.87
- L9R — lower, 2.54
- L9T — lower, 3.02
- L9N — lower, 4.24
- L9D — lower, 3.23
- L9F — lower, 3.35
- A20N — lower, 2.75
- A20C — lower, 2.31
- A20Y — lower, 2.15
- M23T — lower, 3.14
- M23W — lower, 2.81
- M23R — lower, 2.68
- M23A — lower, 3.76
- M23K — lower, 4.14
- S21D — lower, 3.57
- S21R — lower, 1.9
- S21T — lower, 3.1
- S21M — lower, 2.98
- S21G — lower, 1.68
- S21Y — lower, 3.14
- V6T — lower, 3.08
- V6G — lower, 2.36
- V6S — lower, 2.6
- V6C — lower, 3.96
- V6P — lower, 4.84
- V6E — lower, 2.91
- V6I — lower, 3.25
- V6L — lower, 3.68
- V6D — lower, 4.1
- G11M — lower, 2.84
- G11Q — lower, 3.03
- G11N — lower, 3.7
- G11W — lower, 2.34
- G11Y — lower, 2.67
- S19M — lower, 2.57
- S19Q — lower, 2.78
- S19I — lower, 2.62
- S19H — lower, 3.01
- S19G — lower, 3.56
- S19F — lower, 4.13
- S19Y — lower, 2.29
